Where a chain is given by its changes, count along the chain named. One block for each binder: values may come before it.
Tests used:
[1] = molecular target: human BTLA on human cells (PBMCs, Ramos.2G6.4C10 B cell line, primary B cells) (human, UniProt Q7Z6A9 31-289); test: cell-based or functional assay
[2] = molecular target: T1, human BTLA protein (immobilised on the Biacore chip) (human, UniProt Q7Z6A9 31-150, limits assumed); test: SPR (Biacore 3000), BTLA amine-coupled to the chip, antibody flowed, 25 C, 1:1 Langmuir fit
T1 construct: also called B and T Lymphocyte Attenuator; CD272
T1 sequence: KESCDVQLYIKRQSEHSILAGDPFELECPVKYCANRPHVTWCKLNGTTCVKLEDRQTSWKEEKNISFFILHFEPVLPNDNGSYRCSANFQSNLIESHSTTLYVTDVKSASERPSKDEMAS
Method: (§1) The binding affinity and kinetics of the BTLA agonist antibodies of the present invention (22B3, 23C8, and 25F7) to BTLA are measured by surface plasmon resonance using Biacore® 3000 (GE Healthcare). […] The experiments are carried out at 25° C. in HBS-EP buffer (GE Healthcare BR100669; 10 mM HEPES, 150 mM NaCl, 3 mM EDTA, 0.05% surfactant P20, pH 7.4). For each cycle, 250 μL antibody sample is flowed through flow cell 1 and 2 at 50 μ1/min, and then dissociated for 10 minutes. The chip surface is regenerated with 5 μL injection of glycine buffer at pH 1.5 at […] flow rate. The data are fit to a 1:1 Langmiur binding model to derive kₒₙ, k_{off,} and to calculate KD. Data shown below are the average of three experiments for human, cyno, rat and murine for 22B3.

[3] = molecular target: T2, murine (C57BL6) BTLA protein (immobilised on the Biacore chip) (mouse (C57BL6), UniProt Q7TSA3 30-183, limits assumed); test: as above
T2 construct: also called Mouse C57BL6 BTLA
T2 chain: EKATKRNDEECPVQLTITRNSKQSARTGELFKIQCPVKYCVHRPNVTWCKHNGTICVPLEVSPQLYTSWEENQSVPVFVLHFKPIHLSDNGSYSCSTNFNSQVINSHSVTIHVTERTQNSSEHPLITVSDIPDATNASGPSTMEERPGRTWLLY
Method: as §1

[4] = molecular target: T3, mouse BTLA on splenocytes of C57BL6 mice (mouse (C57BL6), UniProt Q7TSA3 30-306); test: flow cytometry (FACS) on primary cells
T3 construct: Endogenous BTLA on primary cells; also called mouse BTLA-expressing cells
T3 sequence: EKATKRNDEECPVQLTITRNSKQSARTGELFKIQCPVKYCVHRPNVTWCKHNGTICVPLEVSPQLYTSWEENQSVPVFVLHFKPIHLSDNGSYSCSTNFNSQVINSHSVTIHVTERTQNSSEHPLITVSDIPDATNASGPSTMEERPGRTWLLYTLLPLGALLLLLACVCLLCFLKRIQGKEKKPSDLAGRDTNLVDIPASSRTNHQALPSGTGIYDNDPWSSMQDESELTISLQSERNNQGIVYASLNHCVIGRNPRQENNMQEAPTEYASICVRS
Method: (§2) Isolated primary cells are quantified using a Countess cell counter, and resuspended at 2×10⁶ cells per ml in FACS buffer. Flow cytometry experiments is performed the same day as cell isolation by plating 50 μl (˜0.1×10⁶) cells into a 96 well plate (Greiner #650101). Non-specific antibody binding is prevented by adding 1 μl Fc block (for example, from BD #553142) for 15 minutes at 4 ° C. without washing.
(§3) BTLA antibody binding is tested at various concentrations, by serial dilution in FACS buffer. For example, a purified antibody and controls starting at different concentrations are first diluted to 30 μg/mL and serial 1:3 dilutions of the starting material is performed for a total of 10 titrations (plus untreated control). Antibody titrations are incubated with cells for 20 minutes at 4° C., and washed with FACS buffer prior to stain. Cells are stained using fluorochrome-conjugated antibodies to identify specific cell types (eg. CD19 B cells, CD4 T cells or CD8 T cells) or using a secondary antibody to identify the presence or absence of antibody binding to that subset. Staining is performed for 20 minutes at 4° C. and washed 3 times with FACS buffer prior to analysis on a flow cytometer. Results are analyzed using standard FACS analysis software (eg. FACSDiva) and reported as mean fluorescent intensity of the secondary antibody for each titration. A positive result, which indicates binding, is determined by mean fluorescent intensity staining above background.

[5] = molecular target: T4, cynomolgus monkey BTLA on cyno PBMCs (cynomolgus monkey, UniProt Q7Z6A9 31-289 (human entry)); test: flow cytometry (FACS) on primary cells
T4 construct: Endogenous BTLA on primary cells; also called cynomolgus monkey BTLA-expressing cells
T4 chain: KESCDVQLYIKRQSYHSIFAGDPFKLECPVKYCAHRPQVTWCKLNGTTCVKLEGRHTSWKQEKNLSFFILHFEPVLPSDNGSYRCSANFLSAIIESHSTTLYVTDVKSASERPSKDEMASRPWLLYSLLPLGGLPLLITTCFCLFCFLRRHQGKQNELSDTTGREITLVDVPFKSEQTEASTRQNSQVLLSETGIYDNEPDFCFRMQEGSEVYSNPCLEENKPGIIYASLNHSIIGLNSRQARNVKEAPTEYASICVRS
Method: as §2, §3

[6] = molecular target: T5, murine (Balbc) BTLA protein (immobilised on the Biacore chip) (mouse (Balbc), UniProt Q7TSA3 30-183, limits assumed); test: SPR (Biacore 3000), BTLA amine-coupled to the chip, antibody flowed, 25 C, 1:1 Langmuir fit
T5 construct: also called Mouse Balbc BTLA
T5 chain: T2 chain with P12E, T16N, T18K, Q23H, R26W, Q34E, C56W, S62G, Q73R, T114R
Method: as §1

[7] = molecular target: T6, cynomolgus monkey BTLA protein (immobilised on the Biacore chip) (cynomolgus monkey, limits assumed); test: as above
T6 construct: also called Cyno BTLA
T6 chain: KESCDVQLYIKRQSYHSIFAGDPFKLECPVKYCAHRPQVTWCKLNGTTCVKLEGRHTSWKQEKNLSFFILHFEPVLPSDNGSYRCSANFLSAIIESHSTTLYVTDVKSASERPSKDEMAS
Method: as §1

[8] = molecular target: T7, rat BTLA protein (immobilised on the Biacore chip) (rat, UniProt Q6PNM1 30-183, limits assumed); test: as above
T7 sequence (looked up): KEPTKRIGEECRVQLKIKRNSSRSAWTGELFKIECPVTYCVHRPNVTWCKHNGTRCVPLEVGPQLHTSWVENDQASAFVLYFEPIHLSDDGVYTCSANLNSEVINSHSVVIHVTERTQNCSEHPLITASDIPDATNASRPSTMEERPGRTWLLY
Method: as §1

[9] = molecular target: T5, murine (Balbc) BTLA protein …; test: SPR (Biacore 3000), BTLA amine-coupled to the chip, antibody flowed
Method: as §1

[10] = molecular target: T2, murine (C57BL6) BTLA protein …; test: as above
Method: as §1

IC50 of inhibition of human primary B cell proliferation ([3H]-thymidine) [1]: 0.17 nM
fold increase in tyrosine phosphorylation of BTLA over background compared to negative control (Ramos B cell line, MSD) [1]: 1.47 fold
Kd [2]: 206 nM
koff [2]: 0.0142 s⁻¹
kon [2]: 68600 M⁻¹ s⁻¹
Kd [3]: 4.63 nM
koff [3]: 0.00035 s⁻¹
kon [3]: 77000 M⁻¹ s⁻¹
binding result [4]: binds
binding result [5]: binds
B1: Antibody 25F7 (antibody, human IgG4 S228P, kappa, F234A L235A, V domains shown)
VH: QVQLVQSGAEVKKPGASVKVSCKASGFSLSTYAMNWVRQAPGQGLEWMGIISDDGTTYYATWAKGRVTMTRDTSTSTVYMELSSLRSEDTAVYYCARDAGAGGVQDYLTLWGQGTLVTVSS
VL: DIVMTQSPDSLAVSLGERATINCQASENIYNFLAWYQQKPGQPPKLLIYSASTLASGVPDRFSGSGSGTDFTLTISSLQAEDVAVYYCQQGSSNSNIDNPFGGGTKVEIKR
notes: also called BTLA agonist antibody 25F7

IC50 of inhibition of human primary B cell proliferation ([3H]-thymidine) [1]: 0.32 nM
IC50 of inhibition of human primary B cell proliferation ([3H]-thymidine), similar experiment beside Mab8D5 [1]: 0.32 nM
fold increase in tyrosine phosphorylation of BTLA over background compared to negative control (Ramos B cell line, MSD) [1]: 2.41 fold
Kd [6]: 32.5 nM
koff [6]: 0.0858 s⁻¹
kon [6]: 2.6e+06 M⁻¹ s⁻¹
Kd [7]: 0.27 nM
koff [7]: 0.000647 s⁻¹
kon [7]: 2.45e+06 M⁻¹ s⁻¹
Kd [2]: 0.365 nM
koff [2]: 0.00219 s⁻¹
kon [2]: 5.87e+06 M⁻¹ s⁻¹
Kd [8]: 24.1 nM
koff [8]: 0.0462 s⁻¹
kon [8]: 2.1e+06 M⁻¹ s⁻¹
Kd [3]: 147 nM
koff [3]: 0.265 s⁻¹
kon [3]: 1.89e+06 M⁻¹ s⁻¹
binding result [4]: binds
binding result [5]: binds
B2: Antibody 22B3 (antibody, human IgG4 S228P, kappa, F234A L235A, V domains shown)
VH: QVQLVQSGAEVKKPGASVKVSCKASGFSLSSYGVSWVRQAPGQGLEWMGAISYDGITYYASWAKSRVTMTRDTSTSTVYMELSSLRSEDTAVYYCARGDYYDDYVYVYALDIWGQGTLVTVSS
VL: EIVLTQSPGTLSLSPGERATLSCQASQSISTALAWYQQKPGQAPRLLIYAASTLASGIPDRFSGSGSGTDFTLTISRLEPEDFAVYYCQQGYSSSNLDNVFGGGTKVEIKR
notes: also called humanized 22B3; BTLA agonist antibody 22B3

IC50 of inhibition of human primary B cell proliferation ([3H]-thymidine) [1]: 0.14 nM
binding result [9]: no binding
binding result [10]: no binding
Kd [7]: 35.4 nM
koff [7]: 0.00309 s⁻¹
kon [7]: 87100 M⁻¹ s⁻¹
Kd [2]: 1.93 nM
koff [2]: 0.000293 s⁻¹
kon [2]: 159000 M⁻¹ s⁻¹
binding result [5]: binds
B3: Antibody 23C8 (antibody, human IgG4 S228P, kappa, F234A L235A, V domains shown)
VH: EVQLVESGGGLVQPGGSLRLSCAASGFDISKYNIQWVRQAPGKGLEWVGFINYGGSAYYASRAKGRFTISRDDSKNSLYLQMNSLKTEDTAVYYCARGLSNSDLWGQGTLVTVSS
VL: DIQMTQSPSSLSASVGDRVTITCQASQSISSWLSWYQQKPGKAPKLLIYRASTLASGVPSRFSGSGSGTDFTFTISSLQPEDIATYYCQSTYGGVVGSTSDDNPFGGGTKVEIKR
notes: also called BTLA agonist antibody 23C8
